The source of these data is article PMC3410904.

What is called Kd is the constant that tells how readily two partners part at equilibrium.

For test [1], the target named is CSL (residues 10-436 of human isoform 1, myc/his) (human) (UniProt Q06330).
Test [2] has the same target. The source holds these as a separate data set.
The target of test [3] is CSL^F235L (residues 10-436 of human isoform 1, myc/his) (human) (UniProt Q06330).
The target in test [4] is CAN (CSL-ANKNLS) fusion protein (human) (UniProt Q06330).
For test [5], the target named is CSL (residues 10-436 of human isoform 1, myc/his) (human) (UniProt Q06330). The source holds these as a separate data set.
Test [6] deals with CAN (CSL-ANKNLS) fusion protein (human) (UniProt Q06330). This is another data set of the same source.
Another test addresses CSL BTD (Homo sapiens) (UniProt Q06330). Conditions: cited from earlier work.

In turn, “… (human Notch1 residues 1758-2174) (from UniProt P46531 1758-2174) (domain or fragment)” came in with a TP1-luc luciferase reporter in OT11 cells; … co-transfected with CSL; fold over empty vector in test [1] of 24 fold.
“full-length NICD (human Notch1 intracellular domain) (domain or fragment)”: the TP1-luc luciferase reporter in OT11 cells; NICD co-transfected with CSL; fold activation in test [2] was 100 fold. This substance showed a TP1-luc luciferase reporter in OT11 cells; NICD co-transfected with CSL^F235L; fold activation in test [3] of 94 fold.
As to “dominant-negative form of MAML (dnMAML) (domain or fragment)”, the TP1-luc luciferase reporter in OT11 cells; CAN co-transfected with RAM and 1 to 30 ng dnMAML plasmid; percent of maximal (uninhibited) activation, nearly 0% at 30 ng (% of maximal activation) in test [4] came out at 25. The substance also came in with a TP1-luc luciferase reporter in OT11 cells; CSL co-transfected with … and 1 to 30 ng dnMAML plasmid; percent of maximal (uninhibited) activation, nearly 0% at 30 ng (% of maximal activation) in test [5] of 30.
Regarding “RAM (human Notch1 residues 1758-1878) (from UniProt P46531 1758-1878) (domain or fragment)”, the TP1-luc luciferase reporter in OT11 cells; RAM and ANKNLS in trans co-transfected with CSL; fold activation in test [1] came out at 9 fold. Further, the TP1-luc luciferase reporter in OT11 cells; RAM co-transfected with CAN; fold over CAN alone in test [6] worked out at 6 fold.
Regarding “Notch intracellular domain RAM region RAM (from UniProt P46531)”, the dissociation constant Kd in the test with CSL BTD (Homo sapiens) was 100 nM.
For the substance “NICD* (full-length NICD with xWxP to A4) (domain or fragment)”, in test [2], the TP1-luc luciferase reporter in OT11 cells; NICD* co-transfected with CSL; fold activation stood at 4 fold. In addition, the TP1-luc luciferase reporter in OT11 cells; NICD* co-transfected with CSL^F235L; fold activation in test [3] turned out to be 38 fold.
